From patent US20160017025A1 (RAMOT AT TEL AVIV UNIVERSITY, published 2016)
Ends that are not written are not given here.

T1: APP MAP peptide WT (wild type = ISEVKMDA x8), APP aa 666-673 (also: multiple antigenic peptide, 8 copies, core not described)
T1 construct: Eight copies of the octapeptide as a multiple antigenic peptide; the branching core is not described; also called WT peptide
T1 peptide: ISEVKMDA

T2: APP MAP peptide IP (immunizing peptide = ISEVKLDA x8), half-Swedish mutation (also: multiple antigenic peptide, 8 copies, core not described)
T2 construct: Eight copies as a MAP; the core is not described; also called MAP1-IP
T2 peptide: ISEVKLDA

T3: APP MAP peptide SW (double Swedish mutation = ISEVNLDA x8) (also: multiple antigenic peptide, 8 copies, core not described)
T3 construct: Eight copies as a MAP; the core is not described
T3 peptide: ISEVNLDA

B1: F5.87 mAb (antibody, mouse IgG1, kappa, V domains shown)
VH: EVKLEESGGGLVQPGGSMKLSCAASGFTFSNAWMDWVRQSPEKGLEWVAEIRSKANNHATYYGESVKGRFTISRDDSKSSVYLQMNSLRAEDTGIYYCTATVRGGYWGQGTTLTVSS
VL: DIKMTQSPSSMYASLGERVTITCKASQDINSYLSWFQQKPGKSPKTLIYRANRLVDGVPSRFSGSGSGQDYSLTISSLEYEDMGIYYCLQYDEYPYTFGGGTKLEIKR
notes: Mouse hybridoma IgG1
B2: F5.100 (BBS3) mAb (antibody, mouse IgG1, kappa, V domains shown)
VH: EVQLQQSGPELVKPGASVKISCKASGYTFTDYNMHWVKQSHGKRLEWIGYIYPHNGGTGYNQRFKSKATLTVDKSSSTAYMELRSLTSEDSAVYYCARPGTEAYWGQGTLVTVSA
VL: DIVMTQSQKFMSTSVGDRVSVTCKASQNVGTNVAWYQQKPGQSPKPLIYSASYRYSGVPDRFTGSGSGTDFTLTISNVQSEDLAEYFCQQFNSYPLTFGAGTKLELKR
notes: Mouse hybridoma IgG1; The mature N-termini were found as EVQLQ (H chain; D = residue 21); also called F5.100 mAb; murine BBS3 mAb

Experiments:
[1] = target: T1, APP MAP peptide WT (wild type = …); assay: BIAcore SPR; reference BBS1
Description: (§1) The affinity of new MAbs was assessed by BIAcore. Protein G was immobilized on the CM5 chip as capturing molecule for the different mAbs. Each mAb (ligand) was bound separately to Protein G, and different APP MAP peptides were added separately to the liquid phase (analytes) at different concentrations to test the affinity of the mAb to each peptide. Each mAb was tested for its affinity to the different APP MAP peptides for aa 666-673 WT (wild type=[…], SEQ ID NO:18), IP (immunizing peptide=[…], SEQ ID NO:15), and SW ([…], SEQ ID NO:17). The chip was regenerated by HCl after each cycle of mAb-peptide.

[2] = target: T1, APP MAP peptide WT (wild type = …); assay: BIAcore SPR; mAb captured on Protein G on CM5 chip, MAP peptide as analyte
Description: as §1

[3] = target: T2, APP MAP peptide IP (immunizing peptide …); assay: as above
Description: as §1

[4] = target: T3, APP MAP peptide SW (double Swedish …); assay: as above
Description: as §1

Binder	fold improvement in affinity over BBS1 [1]	Kd [2]	Kd [3]	Kd [4]
B1	1000 fold	3.3 nM	1.2 nM	1.1 nM
B2	1000 fold	1.5 nM	3.8 nM	8.8 nM
